Molecular target: PLC-γ1 (UniProt Q62077)
Assay: IP of PLC-γ1, blot for EAT-2
Conditions: reference: wild type EGFP-EAT-2; sites Y120,Y127

## EAT-2 (from UniProt O35324) Y120F + Y127F double mutant (FF)
  binding against the reference: lost

Source: PMC2757176
